# Patent US20120178908A1 (Novo Nordisk, published 2012)
# T1: TLT-1 receptor on the surface of activated human platelets (human, UniProt Q86YW5 16-311)
# T1 sequence: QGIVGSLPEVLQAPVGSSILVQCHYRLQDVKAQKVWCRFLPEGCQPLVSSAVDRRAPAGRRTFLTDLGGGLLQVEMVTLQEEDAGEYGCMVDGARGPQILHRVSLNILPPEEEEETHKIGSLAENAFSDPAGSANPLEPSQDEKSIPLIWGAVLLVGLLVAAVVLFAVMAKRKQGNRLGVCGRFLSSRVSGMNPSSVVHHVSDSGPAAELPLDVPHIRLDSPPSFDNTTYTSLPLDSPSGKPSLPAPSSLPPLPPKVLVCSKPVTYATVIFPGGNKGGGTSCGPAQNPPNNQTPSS
# T2: TLT-1 18-188 relipidated in 20:80 PS:PC vesicles (human, UniProt Q86YW5 18-188)
# T2 sequence: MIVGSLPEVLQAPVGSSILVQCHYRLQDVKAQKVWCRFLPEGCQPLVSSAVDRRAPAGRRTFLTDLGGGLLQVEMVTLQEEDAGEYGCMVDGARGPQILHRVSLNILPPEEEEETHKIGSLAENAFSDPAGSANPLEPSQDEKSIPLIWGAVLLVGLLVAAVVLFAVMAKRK
# T3: hTF.1-219 (soluble tissue factor)
# T3 chain: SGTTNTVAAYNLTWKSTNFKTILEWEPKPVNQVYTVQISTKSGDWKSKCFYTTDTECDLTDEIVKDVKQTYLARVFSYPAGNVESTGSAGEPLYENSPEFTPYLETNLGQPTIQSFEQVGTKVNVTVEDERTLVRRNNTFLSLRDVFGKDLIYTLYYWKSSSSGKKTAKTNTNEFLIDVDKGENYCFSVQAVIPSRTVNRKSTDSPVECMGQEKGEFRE
# Experiments:
# [1] = target: T1, TLT-1 receptor on the surface of …; assay: flow cytometry on activated human platelets, detection: anti HPC4 tag ab.
# [2] = target: T1, TLT-1 receptor on the surface of …; assay: cell-based or functional assay
# [3] = target: T2, TLT-1 18-188 relipidated in 20:80 PS:PC …; assay: cell-based or functional assay
# [4] = target: T4, GPIIbIIIa receptor on human platelets (human, UniProt P08514 32-1039; P05106 27-788); assay: cell-based or functional assay
# T4 sequence (P08514 32-1039, chain 1 of 2): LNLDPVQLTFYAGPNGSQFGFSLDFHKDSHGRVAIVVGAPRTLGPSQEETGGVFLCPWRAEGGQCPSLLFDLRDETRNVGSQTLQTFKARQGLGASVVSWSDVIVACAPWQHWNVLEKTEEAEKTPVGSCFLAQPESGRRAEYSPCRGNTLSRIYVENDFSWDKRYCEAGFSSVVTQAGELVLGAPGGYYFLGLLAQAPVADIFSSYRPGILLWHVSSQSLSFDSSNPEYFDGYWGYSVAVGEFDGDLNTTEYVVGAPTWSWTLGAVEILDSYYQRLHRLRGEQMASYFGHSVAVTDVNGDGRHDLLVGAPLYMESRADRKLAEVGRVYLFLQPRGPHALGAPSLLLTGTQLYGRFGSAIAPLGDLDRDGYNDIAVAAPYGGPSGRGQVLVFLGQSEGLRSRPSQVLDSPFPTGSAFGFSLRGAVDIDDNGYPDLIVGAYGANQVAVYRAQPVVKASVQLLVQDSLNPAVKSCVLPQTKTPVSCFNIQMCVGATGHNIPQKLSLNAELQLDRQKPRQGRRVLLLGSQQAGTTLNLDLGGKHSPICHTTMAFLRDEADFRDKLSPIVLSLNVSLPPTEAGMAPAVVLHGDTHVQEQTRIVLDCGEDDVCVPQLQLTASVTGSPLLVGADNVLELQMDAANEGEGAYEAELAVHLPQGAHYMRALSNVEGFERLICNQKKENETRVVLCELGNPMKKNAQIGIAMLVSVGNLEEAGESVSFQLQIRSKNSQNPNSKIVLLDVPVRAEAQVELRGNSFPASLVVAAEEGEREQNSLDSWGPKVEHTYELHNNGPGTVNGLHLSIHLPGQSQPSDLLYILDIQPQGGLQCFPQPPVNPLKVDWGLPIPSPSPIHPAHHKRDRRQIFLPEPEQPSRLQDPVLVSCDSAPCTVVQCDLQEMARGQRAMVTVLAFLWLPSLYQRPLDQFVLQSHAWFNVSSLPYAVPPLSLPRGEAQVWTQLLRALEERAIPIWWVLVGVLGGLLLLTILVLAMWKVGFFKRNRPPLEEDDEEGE
# T4 sequence (P05106 27-788, chain 2 of 2): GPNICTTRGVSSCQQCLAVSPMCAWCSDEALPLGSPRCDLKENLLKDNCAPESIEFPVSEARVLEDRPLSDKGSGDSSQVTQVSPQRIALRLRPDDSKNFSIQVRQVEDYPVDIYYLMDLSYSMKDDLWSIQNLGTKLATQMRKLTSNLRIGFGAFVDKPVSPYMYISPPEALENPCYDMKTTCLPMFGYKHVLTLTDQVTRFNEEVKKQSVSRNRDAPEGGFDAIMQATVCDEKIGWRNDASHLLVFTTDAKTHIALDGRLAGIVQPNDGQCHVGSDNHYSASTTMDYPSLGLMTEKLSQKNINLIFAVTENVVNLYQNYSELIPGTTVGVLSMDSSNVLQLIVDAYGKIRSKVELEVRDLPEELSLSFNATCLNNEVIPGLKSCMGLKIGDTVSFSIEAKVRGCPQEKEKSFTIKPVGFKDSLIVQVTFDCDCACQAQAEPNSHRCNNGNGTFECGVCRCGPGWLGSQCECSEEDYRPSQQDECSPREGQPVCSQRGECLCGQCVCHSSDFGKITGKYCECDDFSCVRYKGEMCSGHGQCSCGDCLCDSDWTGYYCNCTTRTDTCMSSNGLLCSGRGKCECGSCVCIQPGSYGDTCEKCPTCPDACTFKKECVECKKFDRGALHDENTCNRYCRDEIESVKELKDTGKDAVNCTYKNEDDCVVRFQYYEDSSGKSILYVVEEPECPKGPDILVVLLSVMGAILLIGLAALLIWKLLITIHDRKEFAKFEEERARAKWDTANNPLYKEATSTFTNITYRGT
# [5] = target: T4, GPIIbIIIa receptor on human platelets; assay: cell-based or functional assay; remark: listed apart in the source
# [6] = target: mAb-hTF.1-219 fusion proteins (those tested in FIG. 7)
# [7] = target: T3, hTF.1-219 (soluble tissue factor)
# [8] = target: Fab-hTF.1-219 fusion proteins (those tested in FIG. 7)
Binder,FX activation: response with resting platelets relative to activated platelets [4],FVII-mediated FXa generation % Activity activated plts (n 1) [5],FVIIa-mediated FXa generation % Activity activated plts (n 1) [5],other results
"Fab 0012-LC-HPC4; VH-CH1 (Fab, Anti-TLT-1 Fab without tissue factor; also called 0010; 0010 Fab) heavy: EVKLLESGGGLVQPGGSLKLSCAASGFDFSRYWMTWVRQAPGKGLEWIGEINPDSSTINYTPSLKDKFIISRDNAKNTLYLQMSEVRSEDTALYYCASGVFTSWGQGTLVTVSAASTKGPSVFPLAPCSRSTSESTAALGCLVKDYFPEPVTVSWNSGALTSGVHTFPAVLQSSGLYSLSSVVTVPSSSLGTKTYTCNVDHKPSNTKVDKRVESK light: DVVMTQTPLSLPVSLGDQASISCRSSQSLVHRNGNTYFHWCLQKPGQSPKLLIYKVSNRFSGVPDRFSGSGSGTDFTLKISRVEAEDLGVYFCSQSTHVPYTFGGGTKLEIKRTVAAPSVFIFPPSDEQLKSGTASVVCLLNNFYPREAKVQWKVDNALQSGNSQESVTEQDSKDSTYSLSSTLTLSKADYEKHKVYACEVTHQGLSSPVTKSFNRGECEDQVDPRLIDGK",,,,binding result [1]: binds
Fab 0012-LC-L4a-hTF.1-219; VH-CH1-HPC4 (other) light: DVVMTQTPLSLPVSLGDQASISCRSSQSLVHRNGNTYFHWCLQKPGQSPKLLIYKVSNRFSGVPDRFSGSGSGTDFTLKISRVEAEDLGVYFCSQSTHVPYTFGGGTKLEIKRTVAAPSVFIFPPSDEQLKSGTASVVCLLNNFYPREAKVQWKVDNALQSGNSQESVTEQDSKDSTYSLSSTLTLSKADYEKHKVYACEVTHQGLSSPVTKSFNRGECGSGGGGSGGGGSGGGGSSGTTNTVAAYNLTWKSTNFKTILEWEPKPVNQVYTVQISTKSGDWKSKCFYTTDTECDLTDEIVKDVKQTYLARVFSYPAGNVESTGSAGEPLYENSPEFTPYLETNLGQPTIQSFEQVGTKVNVTVEDERTLVRRNNTFLSLRDVFGKDLIYTLYYWKSSSSGKKTAKTNTNEFLIDVDKGENYCFSVQAVIPSRTVNRKSTDSPVECMGQEKGEFRE heavy: EVKLLESGGGLVQPGGSLKLSCAASGFDFSRYWMTWVRQAPGKGLEWIGEINPDSSTINYTPSLKDKFIISRDNAKNTLYLQMSEVRSEDTALYYCASGVFTSWGQGTLVTVSAASTKGPSVFPLAPCSRSTSESTAALGCLVKDYFPEPVTVSWNSGALTSGVHTFPAVLQSSGLYSLSSVVTVPSSSLGTKTYTCNVDHKPSNTKVDKRVESKEDQVDPRLIDGK,,,,FX activation: response with resting platelets relative to activated platelets [2]: 8 % of the response with activated platelets; FVII-mediated FXa generation % Activity lipidated TLT-1 [3]: 97%
Fab AP-3-LC-L4a-hTF.1-219; VH-CH1-HPC4 (other) light: DIVMTQAAPSVPVTPGESVSISCRSSRSLLHSNGNTYLCWFLQRPGQSPQLLIYRMSNLASGVPDRFSGSGSGTAFTLRISRVEAEDVGVYYCMQHLEYPFTFGSGTKLEIKRTVAAPSVFIFPPSDEQLKSGTASVVCLLNNFYPREAKVQWKVDNALQSGNSQESVTEQDSKDSTYSLSSTLTLSKADYEKHKVYACEVTHQGLSSPVTKSFNRGECGSGGGGSGGGGSGGGGSSGTTNTVAAYNLTWKSTNFKTILEWEPKPVNQVYTVQISTKSGDWKSKCFYTTDTECDLTDEIVKDVKQTYLARVFSYPAGNVESTGSAGEPLYENSPEFTPYLETNLGQPTIQSFEQVGTKVNVTVEDERTLVRRNNTFLSLRDVFGKDLIYTLYYWKSSSSGKKTAKTNTNEFLIDVDKGENYCFSVQAVIPSRTVNRKSTDSPVECMGQEKGEFRE heavy: QVQLQQSGAELVRPGTSVKISCKASGYTFTNYWLGWVKQRPGHGLEWIGDIYPGGGYNKYNENFKGKATLTADTSSSTAYMQLSSLTSEDSAVYFCAREYGNYDYAMDSWGQGTSVTVSSASTKGPSVFPLAPCSRSTSESTAALGCLVKDYFPEPVTVSWNSGALTSGVHTFPAVLQSSGLYSLSSVVTVPSSSLGTKTYTCNVDHKPSNTKVDKRVESKEDQVDPRLIDGK,~20 % of the response with activated platelets,218%,164%,
Fab AP-3-LC.C34S-L4a-hTF.1-219; VH-CH1-HPC4 (other) light: DIVMTQAAPSVPVTPGESVSISCRSSRSLLHSNGNTYLSWFLQRPGQSPQLLIYRMSNLASGVPDRFSGSGSGTAFTLRISRVEAEDVGVYYCMQHLEYPFTFGSGTKLEIKRTVAAPSVFIFPPSDEQLKSGTASVVCLLNNFYPREAKVQWKVDNALQSGNSQESVTEQDSKDSTYSLSSTLTLSKADYEKHKVYACEVTHQGLSSPVTKSFNRGECGSGGGGSGGGGSGGGGSSGTTNTVAAYNLTWKSTNFKTILEWEPKPVNQVYTVQISTKSGDWKSKCFYTTDTECDLTDEIVKDVKQTYLARVFSYPAGNVESTGSAGEPLYENSPEFTPYLETNLGQPTIQSFEQVGTKVNVTVEDERTLVRRNNTFLSLRDVFGKDLIYTLYYWKSSSSGKKTAKTNTNEFLIDVDKGENYCFSVQAVIPSRTVNRKSTDSPVECMGQEKGEFRE heavy: QVQLQQSGAELVRPGTSVKISCKASGYTFTNYWLGWVKQRPGHGLEWIGDIYPGGGYNKYNENFKGKATLTADTSSSTAYMQLSSLTSEDSAVYFCAREYGNYDYAMDSWGQGTSVTVSSASTKGPSVFPLAPCSRSTSESTAALGCLVKDYFPEPVTVSWNSGALTSGVHTFPAVLQSSGLYSLSSVVTVPSSSLGTKTYTCNVDHKPSNTKVDKRVESKEDQVDPRLIDGK,~20 % of the response with activated platelets,215%,143%,
Factor VIIa (FVIIa) (protein) ANAFLEELRPGSLERECKEEQCSFEEAREIFKDAERTKLFWISYSDGDQCASSPCQNGGSCKDQLQSYICFCLPAFEGRNCETHKDDQLICVNENGGCEQYCSDHTGTKRSCRCHEGYSLLADGVSCTPTVEYPCGKIPILEKRNASKPQGRIVGGKVCPKGECPWQVLLLVNGAQLCGGTLINTIWVVSAAHCFDKIKNWRNLIAVLGEHDLSEHDGDEQSRRVAQVIIPSTYVPGTTNHDIALLRLHQPVVLTDHVVPLCLPERTFSERTLAFVRFSLVSGWGQLLDRGATALELMVLNVPRLMTQDCLQQSRKVGDSPNITEYMFCAGYSDGSKDSCKGDSGGPHATHYRGTWYLTGIVSWGQGCATVGHFGVYTRVSQYIEWLQKLMRSEPRPGVLLRAPFP,,,,"FVIIa amidolytic activity (chromogenic substrate S2288, A405) [6]: similarly stimulate FVIIa activity in a concentration dependent manner identical to that of hTF.1-219; FVIIa amidolytic activity (chromogenic substrate S2288, A405) [7]: Binding of hTF.1-219 to FVIIa increases the FVIIa catalytic activity; FVIIa amidolytic activity (chromogenic substrate S2288, A405) [8]: stimulate FVIIa amidolytic activity in a concentration dependent manner indistinguishable from that induced by hTF.1-219"
